Patent publication US20050287643A1 (YALE UNIVERSITY, published 2005)

How the values were obtained:
KIX domain of CBP = KIX domain of CBP (Homo sapiens (Human), UniProt Q92793 587-666); assay: method not stated (supplemental information)
Mena1-112 EVH1 domain [1] = molecular target: T1, Mena1-112 EVH1 domain (UniProt Q03173 1-112); assay: fluorescence polarization competition against pGolemi^Flu
T1 construct: range 1-112

Mena1-112 EVH1 domain [2] = molecular target: T1, Mena1-112 EVH1 domain; assay: tryptophan fluorescence perturbation

T1 sequence (Q03173 1-112 limits assumed): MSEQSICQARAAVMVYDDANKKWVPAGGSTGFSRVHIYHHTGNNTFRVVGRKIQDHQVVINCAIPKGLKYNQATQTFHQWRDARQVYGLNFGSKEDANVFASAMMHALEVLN
KIX domain of CBP, sequence (Q92793 587-666 limits assumed, form in doubt): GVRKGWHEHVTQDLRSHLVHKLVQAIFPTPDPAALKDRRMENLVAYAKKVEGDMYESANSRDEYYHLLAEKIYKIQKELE

B1: pGolemi (designed binder)
chain: PFPPTPPGEEAPVEDLIRFYNDLQQYLNVV
For B1, the Kd (KIX domain of CBP) was 15 µM.

B2: ActA11 (peptide)
peptide: FEFPPPPTDEE
notes: domain: PPII repeat 2; also called 11 residue peptide comprising PPII repeat 2 of L. monocytogenes ActA
In the case of B2, the IC50 (Mena1-112 EVH1 domain [1]) is reported as 4 µM.

B3: PPII7 (peptide)
peptide: PFPPTPP
For B3, the Kd (Mena1-112 EVH1 domain [2]) was 480 µM.
